Values joined by “and” are separate entries in the source; they are usually repeats but may differ in a detail not shown here. Identical values can stand only once. Square brackets hold non-standard residues; d marks the D form. Ends that are not written are not given here. dMet(O) = CS(=O)CC[C@@H](N)C(=O)O

The assay has as its target Tau40 P301L protein (human). As to the kind of experiment: cell-based or functional assay.
As for [dL][dR][dV][dQ][dV][dR][dL] [lrvqvrl (PEPTIDE ID NO: 441)], the “IC50, Tau40 assay (ThT)” value turned out to be 2130 nM.

Consider [dW][dI][dK][dI][dW][dR] [wikiwr (PEPTIDE ID NO: 29)], for which the “IC50, Tau40 assay (ThT)” value is 2020 nM.

[dF][dK][dI][dR][dI][dH][dH][dY] [fkirihhy (PEPTIDE ID NO: 122)]: the “IC50, Tau40 assay (ThT)” value is 1890 nM and 910 nM.

On to [dW][dM][dL][dR][dI][dH][dW] [wmlrihw (PEPTIDE ID NO: 304)], for which the “IC50, Tau40 assay (ThT)” value was found to be 2070 nM.

Consider [dW][dR][dL][dK][dV][dN][dW] [wrlkvnw (PEPTIDE ID NO: 296)], for which the “IC50, Tau40 assay (ThT)” value was found to be 1870 nM.

For [dF][dK][dI][dK][dL][dK][dW] [fkiklkw (PEPTIDE ID NO: 35)], the “IC50, Tau40 assay (ThT)” value is 1740 nM and 1840 nM.

As for [dR][dR][dL][dK][dV][dR][dW][dR] [rrlkvrwr (PEPTIDE ID NO: 439)], the “IC50, Tau40 assay (ThT)” value came out at 1680 nM.

For [dV][dR][dW][dW][dW][dR][dL][dK] [vrwwwrlk (PEPTIDE ID NO: 204)], the “IC50, Tau40 assay (ThT)” value worked out at 740 nM.

[dL][dK][dI][dF][dI][dY][dY][dH] [lkifiyyh (PEPTIDE ID NO: 302)]: the “IC50, Tau40 assay (ThT)” value is 1990 nM.

Turning to [dR][dR][dL][dR][dI][dH][dW] [rrlrihw (PEPTIDE ID NO: 290)], the “IC50, Tau40 assay (ThT)” value came out at 1790 nM.

As to [dP][dR][dI][dR][dL][dH][dW] [prirlhw (PEPTIDE ID NO: 33)], the “IC50, Tau40 assay (ThT)” value is 1940 nM and 1950 nM.

Take [dT][dW][dR][dL][dK][dV][dR][dW] [twrlkvrw (PEPTIDE ID NO: 205)]: the “IC50, Tau40 assay (ThT)” value was 750 nM.

For [dW][dR][dL][dA][dV][dR][dW] [wrlavrw (PEPTIDE ID NO: 301)], the “IC50, Tau40 assay (ThT)” value was determined as 1940 nM.

As for [dK][dV][dR][dW][dW][dL][dR][dW] [kvrwwlrw (PEPTIDE ID NO: 201)], the “IC50, Tau40 assay (ThT)” value was 710 nM.

[dF][dK][dL][dH][dI][dR][dH][dW] [fklhirhw (PEPTIDE ID NO: 128)]: the “IC50, Tau40 assay (ThT)” value was 1710 nM and 1760 nM.

As to [dL][dK][dL][dK][dI][dK][dH][dF] [lklkikhf (PEPTIDE ID NO: 154)], the “IC50, Tau40 assay (ThT)” value worked out at 2210 nM.

On to [dL][dK][dI][dR][dI][dA][dY][dH] [lkiriayh (PEPTIDE ID NO: 303)], for which the “IC50, Tau40 assay (ThT)” value amounted to 2030 nM.

On to [dR][dI][dR][dL][dR][dW] [rirlrw (PEPTIDE ID NO: 38)], for which the “IC50, Tau40 assay (ThT)” value is 2040 nM and 2200 nM.

On to [dW][dK][dV][dQ][dV][dR][dL][dW] [wkvqvrlw (PEPTIDE ID NO: 2)], for which the “IC50, Tau40 assay (ThT)” value is 2260 nM and 950 nM and 2390 nM and 820 nM.

In the case of [dW][dR][dI][dR][dL][dR][dY][dW] [wrirlryw (PEPTIDE ID NO: 104)], the “IC50, Tau40 assay (ThT)” value was 1910 nM and 2450 nM.

Turning to [dL][dK][dI][dR][dI][dH][dY][dR] [lkirihyr (PEPTIDE ID NO: 291)], the “IC50, Tau40 assay (ThT)” value is 1810 nM.

In the case of [dF][dE][dL][dR][dL][dH][dW][dH] [felrlhwh (PEPTIDE ID NO: 133)], the “IC50, Tau40 assay (ThT)” value was 2110 nM and 2410 nM.

Take [dF][dH][dI][dH][dI][dK][dF][dH] [fhihikfh (PEPTIDE ID NO: 437)]: the “IC50, Tau40 assay (ThT)” value turned out to be 2020 nM.

Turning to [dW][dR][dL][dN][dV][dR][dW] [wrlnvrw (PEPTIDE ID NO: 306)], the “IC50, Tau40 assay (ThT)” value was 2070 nM.

In the case of [dW][dR][dL][dK][dV][dR][dW] [wrlkvrw (PEPTIDE ID NO: 289)], the “IC50, Tau40 assay (ThT)” value turned out to be 1770 nM.

Regarding [dH][dY][dH][dI][dR][dI][dK][dL] [hyhirikl (PEPTIDE ID NO: 300)], the “IC50, Tau40 assay (ThT)” value turned out to be 1940 nM.

On to [dL][dK][dI][dW][dI][dH][dY][dH] [lkiwihyh (PEPTIDE ID NO: 299)], for which the “IC50, Tau40 assay (ThT)” value stood at 1910 nM.

[dW][dT][dL][dR][dI][dH][dW] [wtlrihw (PEPTIDE ID NO: 305)]: the “IC50, Tau40 assay (ThT)” value amounted to 2070 nM.

Take [dW][dR][dL][dR][dI][dW][dW] [wrlriww (PEPTIDE ID NO: 103)]: the “IC50, Tau40 assay (ThT)” value came out at 1980 nM.

Take [dR][dI][dR][dW][dR][dW] [rirwrw (PEPTIDE ID NO: 50)]: the “IC50, Tau40 assay (ThT)” value was found to be 2020 nM.

Turning to [dR][dL][dR][dI][dH][dW][dW] [rlrihww (PEPTIDE ID NO: 164)], the “IC50, Tau40 assay (ThT)” value was found to be 2050 nM.

Consider [dF][dH][dI][dR][dL][dE][dW][dH] [fhirlewh (PEPTIDE ID NO: 139)], for which the “IC50, Tau40 assay (ThT)” value was 1860 nM and 2190 nM.

[dW][dF][dK][dI][dK][dL][dE][dL] [wfkiklel (PEPTIDE ID NO: 110)]: the “IC50, Tau40 assay (ThT)” value is 1770 nM and 2530 nM.

Regarding [dF][dR][dI][dR][dI][dH][dH][dF] [fririhhf (PEPTIDE ID NO: 113)], the “IC50, Tau40 assay (ThT)” value was 740 nM and 810 nM.

Consider [dL][dK][dI][dR][dI][dMet(O)][dY] [lkirixy (PEPTIDE ID NO: 297)], for which the “IC50, Tau40 assay (ThT)” value worked out at 1880 nM.

On to [dL][dA][dI][dR][dI][dH][dY][dH] [lairihyh (PEPTIDE ID NO: 309)], for which the “IC50, Tau40 assay (ThT)” value came to 2190 nM.

As for [dW][dR][dL][dW][dV][dR][dW][dW] [wrlwvrww (PEPTIDE ID NO: 310)], the “IC50, Tau40 assay (ThT)” value came out at 2230 nM.

Turning to [dL][dW][dR][dL][dK][dV][dR][dW] [lwrlkvrw (PEPTIDE ID NO: 202)], the “IC50, Tau40 assay (ThT)” value came to 720 nM.

As for [dW][dL][dR][dV][dQ][dV][dK][dW] [wlrvqvkw (PEPTIDE ID NO: 111)], the “IC50, Tau40 assay (ThT)” value was 2180 nM and 2210 nM.

As for [dW][dK][dV][dQ][dV][dR][dW] [wkvqvrw (PEPTIDE ID NO: 89)], the “IC50, Tau40 assay (ThT)” value was 1730 nM and 1760 nM.

For [dY][dH][dL][dK][dL][dH][dY][dW] [yhlklhyw (PEPTIDE ID NO: 440)], the “IC50, Tau40 assay (ThT)” value was 2170 nM.

For [dL][dK][dI][dH][dI][dH][dY][dH] [lkihihyh (PEPTIDE ID NO: 295)], the “IC50, Tau40 assay (ThT)” value was found to be 1850 nM.

For the molecule [dK][dI][dK][dI][dK][dW] [kikikw (PEPTIDE ID NO: 66)], the “IC50, Tau40 assay (ThT)” value came to 1870 nM.

As for [dW][dR][dL][dE][dV][dR][dW][dW] [wrlevrww (PEPTIDE ID NO: 288)], the “IC50, Tau40 assay (ThT)” value came to 1720 nM.

[dW][dR][dL][dH][dV][dR][dW][dW] [wrlhvrww (PEPTIDE ID NO: 292)]: the “IC50, Tau40 assay (ThT)” value was found to be 1820 nM.

Regarding [dA][dR][dL][dR][dI][dH][dW] [arlrihw (PEPTIDE ID NO: 312)], the “IC50, Tau40 assay (ThT)” value was 2280 nM.

[dR][dI][dK][dL][dR][dW] [riklrw (PEPTIDE ID NO: 24)]: the “IC50, Tau40 assay (ThT)” value was 2030 nM and 2060 nM.

Take [dR][dI][dR][dW][dY][dW][dK] [rirwywk (PEPTIDE ID NO: 311)]: the “IC50, Tau40 assay (ThT)” value came out at 2270 nM.

On to [dR][dL][dK][dV][dR][dW][dW] [rlkvrww (PEPTIDE ID NO: 298)], for which the “IC50, Tau40 assay (ThT)” value came out at 1900 nM.

For the molecule [dF][dR][dL][dK][dL][dR][dF][dH] [frlklrfh (PEPTIDE ID NO: 426)], the “IC50, Tau40 assay (ThT)” value turned out to be 1770 nM.

In the case of [dL][dR][dL][dR][dI][dK][dH][dF] [lrlrikhf (PEPTIDE ID NO: 150)], the “IC50, Tau40 assay (ThT)” value was 1780 nM and 2430 nM.

On to [dW][dR][dL][dK][dV][dE][dW][dW] [wrlkveww (PEPTIDE ID NO: 313)], for which the “IC50, Tau40 assay (ThT)” value is 2300 nM.

Take [dL][dH][dI][dR][dL][dR][dH][dW] [lhirlrhw (PEPTIDE ID NO: 153)]: the “IC50, Tau40 assay (ThT)” value was 1840 nM and 1880 nM.

Turning to [dF][dR][dL][dK][dV][dR][dW][dF] [frlkvrwf (PEPTIDE ID NO: 4)], the “IC50, Tau40 assay (ThT)” value was 1870 nM and 1910 nM and 870 nM.

With [dW][dK][dV][dK][dF][dQ][dH][dW] [wkvkfqhw (PEPTIDE ID NO: 94)], the “IC50, Tau40 assay (ThT)” value was 1690 nM.

As to [dW][dK][dV][dN][dV][dR][dL][dW] [wkvnvrlw (PEPTIDE ID NO: 95)], the “IC50, Tau40 assay (ThT)” value was 1670 nM and 1710 nM.

With [dW][dN][dL][dK][dV][dR][dW] [wnlkvrw (PEPTIDE ID NO: 294)], the “IC50, Tau40 assay (ThT)” value is 1820 nM.

For the origin of these results see US20200216495A1 (ADRX, published 2020).
